Experimental findings from patent US20040143095A1 are described below.

Assay [1] concerns the target mouse CRF receptor type 2β (mouse) (UniProt Q60748). Kind of assay: radioligand displacement ([125I-Tyr0,Glu1,Nle17]-sauvagine), CHO membranes.
In assay [2] the target is rat CRF receptor type 2α (rat) (UniProt P47866). The assay is described as above.
Sequence of rat CRF receptor type 2α (rat) (P47866 20-411): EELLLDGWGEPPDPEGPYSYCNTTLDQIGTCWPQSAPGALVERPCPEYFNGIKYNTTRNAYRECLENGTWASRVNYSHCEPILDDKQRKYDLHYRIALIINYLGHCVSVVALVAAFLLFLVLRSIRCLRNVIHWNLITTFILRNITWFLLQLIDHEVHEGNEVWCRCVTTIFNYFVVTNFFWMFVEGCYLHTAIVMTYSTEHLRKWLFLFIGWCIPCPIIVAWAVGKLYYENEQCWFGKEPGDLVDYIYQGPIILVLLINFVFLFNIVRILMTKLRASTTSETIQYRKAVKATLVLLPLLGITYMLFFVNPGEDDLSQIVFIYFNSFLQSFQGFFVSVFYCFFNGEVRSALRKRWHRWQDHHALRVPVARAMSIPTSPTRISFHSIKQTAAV

As to “Urocortin (rat) (from UniProt P55090 81-120) (peptide)”, the Ki in assay [1] was 0.62 nM; in assay [2], 2.2 nM.
The corresponding values for “CRF (rat/human) (from UniProt P06850 154-194) (peptide)” are 5.2 nM and 10.1 nM.
